Publication PMC10113255, “PHF14 enhances DNA methylation of SMAD7 gene to promote TGF-β-driven lung adenocarcinoma metastasis”

Biological target: T1, PHF14 ePHD domain E430A K435A (Homo sapiens, UniProt O94880 382-499, E430A;K435A)
T1 sequence: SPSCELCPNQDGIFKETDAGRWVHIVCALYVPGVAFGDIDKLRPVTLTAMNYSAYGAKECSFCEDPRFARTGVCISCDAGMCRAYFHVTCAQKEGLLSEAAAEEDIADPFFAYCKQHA
Test: SPR; protein immobilized on CM5; SPR: HBS-P (10 mM HEPES pH 7.4, 150 mM NaCl, 0.05% P20), 25 °C, 1:1 Langmuir fit; EMSA: LightShift kit protocol, 0.5x TBE native PAGE, buffer not stated
Details: protein: recombinant; tags: His (EMSA, purification method); FLAG (SPR); label: biotin (EMSA); blunt

B1: CG-rich probe, unmethylated (dsDNA)
DNA 1: ACGGCTCGTCGCTACGGCTCGTCGCT
DNA 2: AGCGACGAGCCGTAGCGACGAGCCGT
**Q.** For B1, which Kd is on record?
**A.** 275 nM
